Data reported in the supplement of paper PMC9112550, “Optimization of the antimicrobial peptide Bac7 by deep mutational scanning” (BMC Biology, 2022).

These sequences were tested on Escherichia coli TOP10 (assay: shrunken log2 fold change of peptide-encoding DNA abundance (4.5 h post-induction vs induction); higher = less antimicrobial activity (less host growth inhibition)). Settings: time post-induction: 4.5 h; library: site-saturation at positions 5, 18, 19, 20.
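Further: peptides expressed intracellularly from a pBAD plasmid library in pooled LB shake-flask culture, induced with 0.3% L-arabinose, DNA abundance read by NGS, three biological replicates, DESeq2 with apeglm shrinkage.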

Sequence	shrunken log2 fold change
RRIRWRPPRLPRPRPRPCVAPRP	0.321
RRIRWRPPRLPRPRPRPCVHPRP	0.0249
RRIRWRPPRLPRPRPRPCVWPRP	0.738
RRIRWRPPRLPRPRPRPCYEPRP	-0.136
RRIRWRPPRLPRPRPRPCYKPRP	-0.00556
RRIRWRPPRLPRPRPRPCYNPRP	-0.24
RRIRWRPPRLPRPRPRPCYWPRP	-0.201
RRIRWRPPRLPRPRPRPDAHPRP	0.0254
RRIRWRPPRLPRPRPRPDANPRP	0.0696
RRIRWRPPRLPRPRPRPDCTPRP	0.372
RRIRWRPPRLPRPRPRPDCYPRP	0.148
RRIRWRPPRLPRPRPRPDDIPRP	-0.163
RRIRWRPPRLPRPRPRPDDMPRP	-0.147
RRIRWRPPRLPRPRPRPDDPPRP	-0.0101
RRIRWRPPRLPRPRPRPDESPRP	-0.0029
RRIRWRPPRLPRPRPRPDEWPRP	0.253
RRIRWRPPRLPRPRPRPDFPPRP	-0.0386
RRIRWRPPRLPRPRPRPDFRPRP	0.169
RRIRWRPPRLPRPRPRPDMPPRP	0.325
RRIRWRPPRLPRPRPRPDNFPRP	-0.0334
RRIRWRPPRLPRPRPRPDNRPRP	-0.213
RRIRWRPPRLPRPRPRPDPGPRP	-0.041
RRIRWRPPRLPRPRPRPDPKPRP	-0.0134
RRIRWRPPRLPRPRPRPDQPPRP	0.234
RRIRWRPPRLPRPRPRPDRQPRP	-0.018

Sequence	shrunken log2 fold change
RRIRWRPPRLPRPRPRPDSEPRP	1.48
RRIRWRPPRLPRPRPRPDSMPRP	-0.0126
RRIRWRPPRLPRPRPRPDTNPRP	-0.144
RRIRWRPPRLPRPRPRPDVDPRP	-0.0413
RRIRWRPPRLPRPRPRPDWCPRP	0.112
RRIRWRPPRLPRPRPRPDWGPRP	-0.0819
RRIRWRPPRLPRPRPRPEAAPRP	1.76
RRIRWRPPRLPRPRPRPEAFPRP	0.488
RRIRWRPPRLPRPRPRPECWPRP	1.29
RRIRWRPPRLPRPRPRPECYPRP	-0.0149
RRIRWRPPRLPRPRPRPEFWPRP	0.6
RRIRWRPPRLPRPRPRPEHNPRP	0.147
RRIRWRPPRLPRPRPRPEHYPRP	-1.14
RRIRWRPPRLPRPRPRPEIAPRP	0.355
RRIRWRPPRLPRPRPRPEKGPRP	0.0282
RRIRWRPPRLPRPRPRPEMCPRP	-0.0695
RRIRWRPPRLPRPRPRPEPEPRP	0.838
RRIRWRPPRLPRPRPRPEPLPRP	0.417
RRIRWRPPRLPRPRPRPERFPRP	-0.0212
RRIRWRPPRLPRPRPRPERRPRP	0.327
RRIRWRPPRLPRPRPRPERVPRP	0.447
RRIRWRPPRLPRPRPRPESRPRP	0.323
RRIRWRPPRLPRPRPRPESTPRP	1.17
RRIRWRPPRLPRPRPRPEVNPRP	0.321
RRIRWRPPRLPRPRPRPEWDPRP	1.22

Sequence	shrunken log2 fold change
RRIRWRPPRLPRPRPRPEWGPRP	0.47
RRIRWRPPRLPRPRPRPEWLPRP	0.803
RRIRWRPPRLPRPRPRPEYAPRP	0.467
RRIRWRPPRLPRPRPRPEYTPRP	0.166
RRIRWRPPRLPRPRPRPFALPRP	-0.129
RRIRWRPPRLPRPRPRPFDFPRP	-0.159
RRIRWRPPRLPRPRPRPFEKPRP	0.0683
RRIRWRPPRLPRPRPRPFEVPRP	0.0389
RRIRWRPPRLPRPRPRPFGVPRP	0.227
RRIRWRPPRLPRPRPRPFKDPRP	-0.252
RRIRWRPPRLPRPRPRPFKKPRP	0.149
RRIRWRPPRLPRPRPRPFLGPRP	-0.552
RRIRWRPPRLPRPRPRPFLNPRP	-0.425
RRIRWRPPRLPRPRPRPFMRPRP	0.276
RRIRWRPPRLPRPRPRPFPRPRP	0.111
RRIRWRPPRLPRPRPRPFPYPRP	-0.44
RRIRWRPPRLPRPRPRPFQGPRP	-0.249
RRIRWRPPRLPRPRPRPFRIPRP	-0.5
RRIRWRPPRLPRPRPRPFSAPRP	-0.133
RRIRWRPPRLPRPRPRPFSDPRP	-0.0111
RRIRWRPPRLPRPRPRPFWYPRP	-0.214
RRIRWRPPRLPRPRPRPFYFPRP	0.0389
RRIRWRPPRLPRPRPRPFYGPRP	-0.0562
RRIRWRPPRLPRPRPRPFYNPRP	-0.242
RRIRWRPPRLPRPRPRPGCMPRP	0.464

Sequence	shrunken log2 fold change
RRIRWRPPRLPRPRPRPGDCPRP	0.00839
RRIRWRPPRLPRPRPRPGEEPRP	0.387
RRIRWRPPRLPRPRPRPGELPRP	0.532
RRIRWRPPRLPRPRPRPGESPRP	0.159
RRIRWRPPRLPRPRPRPGEWPRP	0.162
RRIRWRPPRLPRPRPRPGGFPRP	0.664
RRIRWRPPRLPRPRPRPGHCPRP	-0.101
RRIRWRPPRLPRPRPRPGKHPRP	0.0375
RRIRWRPPRLPRPRPRPGKIPRP	0.159
RRIRWRPPRLPRPRPRPGLHPRP	0.237
RRIRWRPPRLPRPRPRPGLMPRP	0.444
RRIRWRPPRLPRPRPRPGMAPRP	0.627
RRIRWRPPRLPRPRPRPGNEPRP	0.403
RRIRWRPPRLPRPRPRPGNMPRP	-0.11
RRIRWRPPRLPRPRPRPGNTPRP	-0.348
RRIRWRPPRLPRPRPRPGPGPRP	0.899
RRIRWRPPRLPRPRPRPGRFPRP	0.152
RRIRWRPPRLPRPRPRPGRYPRP	-0.137
RRIRWRPPRLPRPRPRPGTMPRP	-0.153
RRIRWRPPRLPRPRPRPGTRPRP	0.377
RRIRWRPPRLPRPRPRPGVYPRP	0.221
RRIRWRPPRLPRPRPRPGWAPRP	0.845
RRIRWRPPRLPRPRPRPGWLPRP	0.375
RRIRWRPPRLPRPRPRPGYEPRP	0.00228
RRIRWRPPRLPRPRPRPGYKPRP	-0.255

Sequence	shrunken log2 fold change
RRIRWRPPRLPRPRPRPHAKPRP	0.202
RRIRWRPPRLPRPRPRPHDFPRP	-0.313
RRIRWRPPRLPRPRPRPHDSPRP	-0.122
RRIRWRPPRLPRPRPRPHFMPRP	-0.398
RRIRWRPPRLPRPRPRPHFTPRP	-0.306
RRIRWRPPRLPRPRPRPHGIPRP	0.00741
RRIRWRPPRLPRPRPRPHGRPRP	0.0589
RRIRWRPPRLPRPRPRPHGVPRP	0.0746
RRIRWRPPRLPRPRPRPHIGPRP	-0.079
RRIRWRPPRLPRPRPRPHIQPRP	-0.749
RRIRWRPPRLPRPRPRPHLCPRP	-0.147
RRIRWRPPRLPRPRPRPHLEPRP	-0.16
RRIRWRPPRLPRPRPRPHLRPRP	0.039
RRIRWRPPRLPRPRPRPHMTPRP	0.118
RRIRWRPPRLPRPRPRPHNLPRP	-0.414
RRIRWRPPRLPRPRPRPHQFPRP	-0.843
RRIRWRPPRLPRPRPRPHQLPRP	0.117
RRIRWRPPRLPRPRPRPHQQPRP	-0.0485
RRIRWRPPRLPRPRPRPHRTPRP	-0.168
RRIRWRPPRLPRPRPRPHTYPRP	-0.578
RRIRWRPPRLPRPRPRPIAYPRP	0.000575
RRIRWRPPRLPRPRPRPICDPRP	0.0755
RRIRWRPPRLPRPRPRPIDDPRP	-0.152
RRIRWRPPRLPRPRPRPIDVPRP	-0.298
RRIRWRPPRLPRPRPRPIGLPRP	0.0952

Sequence	shrunken log2 fold change
RRIRWRPPRLPRPRPRPIHCPRP	0.0948
RRIRWRPPRLPRPRPRPIHVPRP	-0.0677
RRIRWRPPRLPRPRPRPIIDPRP	0.0788
RRIRWRPPRLPRPRPRPIIHPRP	-0.463
RRIRWRPPRLPRPRPRPIIPPRP	-0.104
RRIRWRPPRLPRPRPRPILGPRP	-0.0119
RRIRWRPPRLPRPRPRPILQPRP	0.0247
RRIRWRPPRLPRPRPRPILTPRP	0.00604
RRIRWRPPRLPRPRPRPIMIPRP	-0.28
RRIRWRPPRLPRPRPRPINKPRP	-0.431
RRIRWRPPRLPRPRPRPISDPRP	-0.154
RRIRWRPPRLPRPRPRPISSPRP	-0.0629
RRIRWRPPRLPRPRPRPISYPRP	-0.0222
RRIRWRPPRLPRPRPRPITQPRP	-0.0367
RRIRWRPPRLPRPRPRPIVFPRP	-0.125
RRIRWRPPRLPRPRPRPIWNPRP	-0.114
RRIRWRPPRLPRPRPRPKAKPRP	0.166
RRIRWRPPRLPRPRPRPKDEPRP	0.0784
RRIRWRPPRLPRPRPRPKEDPRP	0.0809
RRIRWRPPRLPRPRPRPKEFPRP	-0.228
RRIRWRPPRLPRPRPRPKEIPRP	0.487
RRIRWRPPRLPRPRPRPKELPRP	0.501
RRIRWRPPRLPRPRPRPKFHPRP	-0.249
RRIRWRPPRLPRPRPRPKGGPRP	0.536
RRIRWRPPRLPRPRPRPKGLPRP	-0.0645
